Assay results as given in article PMC13618070.

Biological target: DCR-1•DRH-1 complex (DCR-1•(OSF)DRH-1) (C. elegans) (UniProt P34529)
Assay: pull-down

RDE-4 truncation R1R2 (dsRBM1 and dsRBM2, ends with D243) (from UniProt G5EBF5 1-243) (domain or fragment)
percent recovery normalized to WT RDE-4: 8%
